“And” between values parts separate entries of the source, which are not always exact repeats. Equal values may be shown once. Read-outs that look alike come from different tables or passages of the source.

Data set [1] deals with I100T Sin (mildly activated Sin mutant) (Staphylococcus aureus (plasmid pI9789)). In words: AUC.
For data set [2] the target is unchanged. The data set can be described thus: AUC. The source holds these as a separate data set.
Data set [3] has as its target S9A/R54E/Q115R Sin (highly activated Sin mutant with the active site serine changed) (Staphylococcus aureus (plasmid pI9789)). The data set can be described thus: AUC.
For data set [4] the target is unchanged. In words: AUC. This is another data set of the same source.
For data set [5], the target named is Sin I100T (Staphylococcus aureus (plasmid pI9789), UniProt Q53757 1-202, I100T). The data set can be described thus: AUC sedimentation velocity.
The target in data set [6] is Sin S9A/R54E/Q115R (Staphylococcus aureus (plasmid pI9789), UniProt Q53757 1-202, S9A;R54E;Q115R). The data set can be described thus: AUC sedimentation velocity and equilibrium.

In general, stoichiometry N refers to the number of molecules, sites or subunits per partner or assembly. As to “I100T Sin (mildly activated Sin mutant) (enzyme)”, the stoichiometry N in data set [1] and in data set [2] was 2 throughout.
One may read the Kd as the free concentration of one partner at which half of the binding sites on the other are occupied at equilibrium, for simple one-to-one binding. “S9A/R54E/Q115R Sin (highly activated Sin mutant with the active site serine changed) (enzyme)”: in data set [3], the Kd stood at 400 nM; the stoichiometry N is 2 and 4. This molecule gave a Kd in data set [4] of 450 nM.

B1: 52-mer site I dsDNA (AUC) (dsDNA)
DNA 1: GCCTAGTTCTTTGTGAAATTTGGGTATACCCTAATCATACAAGCTTGATCTG
DNA 2: CAGATCAAGCTTGTATGATTAGGGTATACCCAAATTTCACAAAGAACTAGGC
For B1, the binding result in data set [5] and in data set [6] was “binds” each time.

Values taken from paper PMC2976518.
